Patent US20140274782A1, “AFFINITY REAGENTS AND METHODS FOR DETECTION, PURIFICATION, AND PROTEOMIC ANALYSIS OF METHYLATED PROTEINS” (The Board of Trustees of the Leland Stanford Junior …, priority 2013, published 2014)

Tests used:
G9a and GLP = target: T1, G9a and GLP (Homo sapiens, UniProt Q96KQ7+Q9H9B1); assay: Triple SILAC pull-down after UNC0638 treatment of 293T cells, DMSO/UNC0638 ratio of protein captured by 3×MBT; assay type: cell-based; conditions: for Relative to UNC0638 UNC Heavy: UNC0638 in heavy SILAC media; for Relative to UNC0638 UNC Light: UNC0638 in light SILAC media; for Relative to UNC0638 Average: average of UNC Light and UNC Heavy experiments; for Candidate G9a/GLP target: reduced association with 3xMBT after UNC0638 treatment;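 on all read-outs here: mass spectrometry (Q-Exactive) SILAC quantitation, DMSO/UNC0638 ratio computed after subtracting 3×MBTD355N mutant pull-down background, only proteins with at least twofold 3×MBT over mutant signal considered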
T1 construct: endogenous in cells; host or cells: HEK 293T
T1 sequence (Q96KQ7 2-1210 limits assumed): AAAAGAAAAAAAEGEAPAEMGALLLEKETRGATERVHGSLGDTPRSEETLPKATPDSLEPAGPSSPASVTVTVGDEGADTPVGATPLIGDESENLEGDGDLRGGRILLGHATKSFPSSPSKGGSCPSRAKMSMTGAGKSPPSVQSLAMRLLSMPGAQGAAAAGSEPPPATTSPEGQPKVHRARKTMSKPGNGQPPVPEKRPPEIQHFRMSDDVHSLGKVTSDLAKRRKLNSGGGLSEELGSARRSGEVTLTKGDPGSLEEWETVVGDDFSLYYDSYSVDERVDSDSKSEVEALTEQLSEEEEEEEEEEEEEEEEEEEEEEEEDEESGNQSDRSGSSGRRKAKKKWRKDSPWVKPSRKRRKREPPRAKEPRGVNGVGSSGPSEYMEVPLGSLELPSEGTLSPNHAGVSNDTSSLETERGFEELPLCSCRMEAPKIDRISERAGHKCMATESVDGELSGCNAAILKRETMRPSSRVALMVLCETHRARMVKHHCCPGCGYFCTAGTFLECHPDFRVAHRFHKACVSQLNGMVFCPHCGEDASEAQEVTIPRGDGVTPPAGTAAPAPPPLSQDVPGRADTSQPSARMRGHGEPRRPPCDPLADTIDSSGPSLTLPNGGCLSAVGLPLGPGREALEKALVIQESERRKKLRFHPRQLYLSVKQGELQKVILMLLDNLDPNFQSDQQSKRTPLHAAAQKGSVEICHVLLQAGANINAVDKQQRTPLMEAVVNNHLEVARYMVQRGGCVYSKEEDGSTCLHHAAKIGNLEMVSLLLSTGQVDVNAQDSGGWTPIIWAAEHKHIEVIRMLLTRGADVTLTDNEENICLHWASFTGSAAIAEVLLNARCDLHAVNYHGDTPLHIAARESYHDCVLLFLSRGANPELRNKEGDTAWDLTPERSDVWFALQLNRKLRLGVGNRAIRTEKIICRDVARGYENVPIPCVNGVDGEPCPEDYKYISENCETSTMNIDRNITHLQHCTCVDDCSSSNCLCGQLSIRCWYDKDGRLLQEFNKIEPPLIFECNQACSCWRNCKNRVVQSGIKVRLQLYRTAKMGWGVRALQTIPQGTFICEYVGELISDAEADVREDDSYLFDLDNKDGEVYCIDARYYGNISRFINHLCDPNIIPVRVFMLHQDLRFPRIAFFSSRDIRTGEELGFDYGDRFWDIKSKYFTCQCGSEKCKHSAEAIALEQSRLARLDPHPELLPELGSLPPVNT
T1 sequence (Q9H9B1 2-1298 limits assumed): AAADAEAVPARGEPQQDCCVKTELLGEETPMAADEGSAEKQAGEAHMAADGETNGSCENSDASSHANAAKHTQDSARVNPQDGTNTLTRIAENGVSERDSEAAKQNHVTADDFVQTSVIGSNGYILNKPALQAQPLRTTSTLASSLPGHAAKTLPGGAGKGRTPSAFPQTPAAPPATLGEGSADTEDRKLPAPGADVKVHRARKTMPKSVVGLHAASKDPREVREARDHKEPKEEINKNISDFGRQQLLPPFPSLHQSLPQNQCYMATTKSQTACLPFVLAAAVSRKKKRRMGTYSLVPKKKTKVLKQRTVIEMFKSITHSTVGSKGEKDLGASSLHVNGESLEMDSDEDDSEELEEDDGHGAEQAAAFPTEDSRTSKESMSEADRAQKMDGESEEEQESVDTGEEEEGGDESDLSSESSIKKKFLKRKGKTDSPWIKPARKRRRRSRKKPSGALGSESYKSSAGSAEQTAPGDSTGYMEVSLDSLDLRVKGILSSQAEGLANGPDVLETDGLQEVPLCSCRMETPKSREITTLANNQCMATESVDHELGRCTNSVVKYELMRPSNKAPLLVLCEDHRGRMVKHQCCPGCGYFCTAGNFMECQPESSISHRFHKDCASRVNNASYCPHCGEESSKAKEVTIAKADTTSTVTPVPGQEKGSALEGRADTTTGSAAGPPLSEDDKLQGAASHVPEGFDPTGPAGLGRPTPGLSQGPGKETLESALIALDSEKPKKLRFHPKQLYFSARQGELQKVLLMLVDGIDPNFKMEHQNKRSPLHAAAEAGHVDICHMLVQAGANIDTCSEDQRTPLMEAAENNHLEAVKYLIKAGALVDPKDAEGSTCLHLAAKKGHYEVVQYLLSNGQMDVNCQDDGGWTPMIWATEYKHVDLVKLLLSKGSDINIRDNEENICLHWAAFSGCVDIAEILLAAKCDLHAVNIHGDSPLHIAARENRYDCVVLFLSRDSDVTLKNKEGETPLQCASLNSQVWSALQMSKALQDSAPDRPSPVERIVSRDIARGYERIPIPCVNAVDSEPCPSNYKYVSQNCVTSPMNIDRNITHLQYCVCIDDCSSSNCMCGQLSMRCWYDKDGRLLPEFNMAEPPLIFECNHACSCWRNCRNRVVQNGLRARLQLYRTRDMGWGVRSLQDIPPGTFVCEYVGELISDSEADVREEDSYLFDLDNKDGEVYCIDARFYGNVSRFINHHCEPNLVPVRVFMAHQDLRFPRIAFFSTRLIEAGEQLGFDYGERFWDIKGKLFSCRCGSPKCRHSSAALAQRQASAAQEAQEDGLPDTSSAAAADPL

3×MBT domain of L3MBTL1 = assay: Triple SILAC pull-down, 3xMBT/3xMBTD355N ratio (cytoplasmic, nuclear and chromatin fractions of 293T cells); assay type: binding, human; conditions: for 3xMBT/D355N UNC Heavy: experiment with UNC0638 in heavy SILAC media; for 3xMBT/D355N UNC Light: experiment with UNC0638 in light SILAC media;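 on all read-outs here: proteins quantified with MaxQuant, requiring at least two unique peptides and quantification in both label directions, normalized to the mean of proteins from a digested loading control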
[1] = SILAC ratio DMSO/UNC0638 of protein pulled down with 3xMBT
[2] = SILAC ratio, pull-down 3xMBT vs 3xMBTD355N
[3] = SILAC ratio DMSO relative to UNC0638, pull-down with 3xMBT, all values in log base 2
[4] = SILAC ratio 3xMBT vs 3xMBTD355N pull-down, 293T cells, all values in log base 2

Row | Relative to UNC0638 UNC Heavy (G9a and GLP; [1]) | Relative to UNC0638 UNC Light (G9a and GLP; [1]) | Relative to UNC0638 Average (G9a and GLP) | Protein Ratios DMSO/UNC0638 (G9a and GLP; SILAC ratio of protein captured by 3xMBT, 293T cells treated 24 hours with UNC0638 at 2.5 μM or DMSO) | Relative to UNC0638 UNC Heavy (G9a and GLP; [3]) | Relative to UNC0638 UNC Light (G9a and GLP; [3]) | Relative to UNC0638 Average (G9a and GLP; all values in log base 2) | Candidate G9a/GLP target (G9a and GLP) | Substance | 3xMBT/D355N UNC Heavy (3×MBT domain of L3MBTL1; [2]) | 3xMBT/D355N UNC Light (3×MBT domain of L3MBTL1; [2]) | Protein Ratios 3xMBT/D355N (3×MBT domain of L3MBTL1; SILAC ratio, pull-down by 3xMBT vs 3xMBTD355N, 293T cells) | 3xMBT/D355N UNC Heavy (3×MBT domain of L3MBTL1; [4]) | 3xMBT/D355N UNC Light (3×MBT domain of L3MBTL1; [4])
1 | 0.09 log base 2 | 0.13 log base 2 | 0.11 log base 2 |  |  |  |  |  | ZFR | 2.89 log base 2 | 3.14 log base 2 |  |  | 
2 | 0.08 log base 2 | 0.28 log base 2 | 0.18 log base 2 |  |  |  |  |  | DHX9 | 3.27 log base 2 | 3.53 log base 2 |  |  | 
3 | 0.54 log base 2 | 0.19 log base 2 | 0.37 log base 2 |  |  |  |  |  | KHDRBS1 | 2.03 log base 2 | 2.82 log base 2 |  |  | 
4 | 0.20 log base 2 | 0.20 log base 2 | 0.20 log base 2 |  |  |  |  |  | FOCAD | 1.83 log base 2 | 2.73 log base 2 |  |  | 
5 |  |  |  | 1.4 |  |  |  |  | Clathrin heavy chain 1 |  |  | 6.0 |  | 
6 |  |  |  |  | −0.03 log base 2 | −0.77 log base 2 | −0.40 log base 2 |  | EEF1G |  |  |  | −0.67 log base 2 | −0.28 log base 2
7 | 0.24 log base 2 | 0.11 log base 2 | 0.17 log base 2 |  |  |  |  |  | NPM1 | 1.24 log base 2 | 1.27 log base 2 |  |  | 
8 | 0.21 log base 2 | 0.36 log base 2 | 0.29 log base 2 |  |  |  |  |  | ELAVL1 | 1.93 log base 2 | 2.42 log base 2 |  |  | 
9 | 0.41 log base 2 | 0.03 log base 2 | 0.22 log base 2 |  |  |  |  |  | GSK3B | 1.95 log base 2 | 2.25 log base 2 |  |  | 
10 | 0.24 log base 2 | 0.65 log base 2 | 0.44 log base 2 |  |  |  |  | ✓ | CLTC | 2.19 log base 2 | 2.98 log base 2 |  |  | 
11 | 0.20 log base 2 | 0.04 log base 2 | 0.12 log base 2 |  |  |  |  |  | NUDT21 | 3.65 log base 2 | 3.15 log base 2 |  |  | 
12 | 4.51 log base 2 | 0.18 log base 2 | 2.35 log base 2 |  |  |  |  | √✓ | NSUN2 | 0.25 log base 2 | 2.00 log base 2 |  |  | 
13 | 0.42 log base 2 | 0.03 log base 2 | 0.23 log base 2 |  |  |  |  |  | TUBB4B | 1.05 log base 2 | 1.75 log base 2 |  |  | 
14 |  |  |  |  | 0.21 log base 2 | −0.01 log base 2 | 0.10 log base 2 |  | CSNK2B |  |  |  | 2.83 log base 2 | 2.65 log base 2
15 |  |  |  |  | 0.04 log base 2 | −1.45 log base 2 | −0.70 log base 2 |  | METTL3 |  |  |  | 3.18 log base 2 | −0.51 log base 2
16 |  |  |  |  | −0.64 log base 2 | 0.63 log base 2 | −0.01 log base 2 |  | EPRS |  |  |  | 0.46 log base 2 | 1.98 log base 2
17 | 0.04 log base 2 | 0.31 log base 2 | 0.18 log base 2 |  |  |  |  |  | EIF4E | 2.40 log base 2 | 2.40 log base 2 |  |  | 
18 | 0.28 log base 2 | 0.06 log base 2 | 0.17 log base 2 |  |  |  |  |  | HSPA8 | 2.05 log base 2 | 1.48 log base 2 |  |  | 
